Test [1] concerns the target methyl cytosine binding protein 2 (MeCP2). Briefly: immunofluorescence, cells transduced with AAV9-MECP2 at MOI 150000, well 1 (background level).
The target in test [2] is human survival motor neuron (SMN1) protein (human) (UniProt Q16637). Briefly: immunofluorescence, cells transduced with AAV9-SMN1 at MOI 75000, well 1.
Test [3] deals with methyl cytosine binding protein 2 (MeCP2). Briefly: immunofluorescence, cells transduced with AAV9-MECP2 at MOI 300000, well 2 (background level).
Test [4] deals with human survival motor neuron (SMN1) protein (human) (UniProt Q16637). As to the kind of experiment: immunofluorescence, cells transduced with AAV9-SMN1 at MOI 18750, well 1.
Test [5] has the same target. As to the kind of experiment: immunofluorescence, cells transduced with AAV9-SMN1 at MOI 150000, well 2.
Test [6] deals with methyl cytosine binding protein 2 (MeCP2). As to the kind of experiment: immunofluorescence, cells transduced with AAV9-MECP2 at MOI 75000, well 2 (background level).
For test [7] the target is unchanged. Briefly: immunofluorescence, cells transduced with AAV9-MECP2 at MOI 18750, well 1 (background level).
Test [8] concerns the target human survival motor neuron (SMN1) protein (human) (UniProt Q16637). As to the kind of experiment: immunofluorescence, cells transduced with AAV9-SMN1 at MOI 37500, well 1.
For test [9], the target named is methyl cytosine binding protein 2 (MeCP2). Briefly: immunofluorescence, cells transduced with AAV9-MECP2 at MOI 37500, well 2 (background level).
Test [10] deals with human survival motor neuron (SMN1) protein (human) (UniProt Q16637). As to the kind of experiment: immunofluorescence, cells transduced with AAV9-SMN1 at MOI 18750, well 2.
Test [11] shares this target. Briefly: immunofluorescence, cells transduced with AAV9-SMN1 at MOI 37500, well 2.
The target in test [12] is methyl cytosine binding protein 2 (MeCP2). Briefly: immunofluorescence, cells transduced with AAV9-MECP2 at MOI 150000, well 2 (background level).
In test [13] the target is human survival motor neuron (SMN1) protein (human) (UniProt Q16637). As to the kind of experiment: immunofluorescence, cells transduced with AAV9-SMN1 at MOI 150000, well 1.
The target in test [14] is methyl cytosine binding protein 2 (MeCP2). As to the kind of experiment: immunofluorescence, cells transduced with AAV9-MECP2 at MOI 18750, well 2 (background level).
Test [15] concerns the target human survival motor neuron (SMN1) protein (human) (UniProt Q16637). As to the kind of experiment: immunofluorescence, fixed/permeabilised mTD-NPC-delta7 cells transduced with AAV9-SMN1 at MOI 300000, well 1.
The target in test [16] is methyl cytosine binding protein 2 (MeCP2). Briefly: immunofluorescence, cells transduced with AAV9-MECP2 at MOI 37500, well 1 (background level).
For test [17] the target is unchanged. As to the kind of experiment: immunofluorescence, cells transduced with AAV9-MECP2 at MOI 75000, well 1 (background level).
The target of test [18] is human survival motor neuron (SMN1) protein (human) (UniProt Q16637). Briefly: immunofluorescence, cells transduced with AAV9-SMN1 at MOI 75000, well 2.
For test [19], the target named is methyl cytosine binding protein 2 (MeCP2). As to the kind of experiment: immunofluorescence, cells transduced with AAV9-MECP2 at MOI 300000, well 1 (background level).
The target in test [20] is human survival motor neuron (SMN1) protein (human) (UniProt Q16637). Briefly: immunofluorescence, fixed/permeabilised mTD-NPC-delta7 cells transduced with AAV9-SMN1 at MOI 300000, well 2.

One substance from patent US20210255185A1 can be followed below.

Sequence of UniProt Q16637 (Q16637 2-294 limits assumed): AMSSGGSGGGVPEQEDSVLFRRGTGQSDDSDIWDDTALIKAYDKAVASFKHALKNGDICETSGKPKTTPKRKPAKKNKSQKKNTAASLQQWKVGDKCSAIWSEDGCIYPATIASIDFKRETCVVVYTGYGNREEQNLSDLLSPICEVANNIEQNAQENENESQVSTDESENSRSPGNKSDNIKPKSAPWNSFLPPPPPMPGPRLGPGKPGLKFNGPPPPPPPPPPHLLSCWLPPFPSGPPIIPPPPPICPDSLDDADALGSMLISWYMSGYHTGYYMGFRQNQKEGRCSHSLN

For the substance “mouse monoclonal anti-SMN antibody (Clone 2B1)”, the IFI-C (integrated fluorescent intensity per cell) was found to be 886000 in test [1]; 2.34e+06 in test [2]; 875000 in [3]; 1.46e+06 in [4]; 3.02e+06 in [5]; 860000 in test [6]. Further, the IFI-C (integrated fluorescent intensity per cell) in test [7] came to 720000; in [8] it was 1.87e+06; in test [9], 817000; in test [10], 1.51e+06; in test [11] it was 1.86e+06; in test [12], 839000. The IFI-C (integrated fluorescent intensity per cell) was determined as 2.87e+06 in [13]; 759000 in test [14]; 3.43e+06 in test [15]; 809000 in [16]; 837000 in [17]; 2.46e+06 in test [18]. Further, the IFI-C (integrated fluorescent intensity per cell) in test [19] is 867000; in test [20], 3.27e+06.
